Source: US20260201029A1
pKd: −log10 of the molar value.

How the values were obtained:
[1] = molecular target: human FcγRIIa (human) (UniProt P12318); experiment: SPR, receptor captured by anti-his, antibody injected, steady-state fit
[2] = molecular target: cynomolgus FcγRIIb (cynomolgus); experiment: as above
[3] = molecular target: cynomolgus FcγRIIa (cynomolgus); experiment: as above
[4] = molecular target: human FcγRIIb/c (human) (UniProt P31994); experiment: as above
[5] = molecular target: human FcγRIIIa 158V allele (human) (UniProt P08637); experiment: SPR, receptor captured by anti-his, antibody injected, 1:1 fit
Sequence of human FcγRIIIa 158V allele (human) (P08637 17-208 F176V limits assumed): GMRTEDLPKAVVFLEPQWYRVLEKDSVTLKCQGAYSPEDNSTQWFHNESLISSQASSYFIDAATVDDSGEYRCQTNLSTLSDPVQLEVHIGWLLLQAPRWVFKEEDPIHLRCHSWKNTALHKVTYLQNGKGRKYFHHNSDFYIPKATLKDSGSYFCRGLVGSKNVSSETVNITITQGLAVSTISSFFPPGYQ

[6] = molecular target: human FcγRI (human) (UniProt P12314); experiment: as above
Sequence of human FcγRI (human) (P12314 16-288 limits assumed): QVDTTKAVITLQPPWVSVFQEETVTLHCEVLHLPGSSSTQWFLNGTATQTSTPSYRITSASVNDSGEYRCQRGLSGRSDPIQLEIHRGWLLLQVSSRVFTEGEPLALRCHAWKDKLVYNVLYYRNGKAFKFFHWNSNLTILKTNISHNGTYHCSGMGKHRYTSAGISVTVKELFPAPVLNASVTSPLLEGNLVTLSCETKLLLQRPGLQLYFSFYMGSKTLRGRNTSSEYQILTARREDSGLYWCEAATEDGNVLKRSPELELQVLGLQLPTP

[7] = molecular target: cynomolgus FcγRIII (cynomolgus) (UniProt Q8SPW2); experiment: as above
Sequence of cynomolgus FcγRIII (cynomolgus) (Q8SPW2 17-208 limits assumed): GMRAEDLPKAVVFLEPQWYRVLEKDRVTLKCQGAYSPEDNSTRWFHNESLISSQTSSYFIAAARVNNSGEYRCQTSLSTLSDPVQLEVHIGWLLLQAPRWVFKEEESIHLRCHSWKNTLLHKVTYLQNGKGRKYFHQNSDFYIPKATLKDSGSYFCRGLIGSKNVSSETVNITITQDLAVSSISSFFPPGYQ

[8] = molecular target: human FcγRIIIa 158F allele (human) (UniProt P08637); experiment: as above
Sequence of human FcγRIIIa 158F allele (human) (P08637 17-208 limits assumed): as the sequence (P08637 17-208 F176V limits assumed) above, with V160F counted along it

[9] = molecular target: cynomolgus FcγRI (cynomolgus); experiment: as above

Sequence of human FcγRIIa (human) (P12318 36-218 limits assumed): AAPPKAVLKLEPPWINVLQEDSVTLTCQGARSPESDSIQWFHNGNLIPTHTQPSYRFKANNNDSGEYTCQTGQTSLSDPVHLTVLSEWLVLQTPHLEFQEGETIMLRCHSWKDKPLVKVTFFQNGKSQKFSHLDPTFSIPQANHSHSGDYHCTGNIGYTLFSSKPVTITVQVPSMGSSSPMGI
Sequence of human FcγRIIb/c (human) (P31994 46-217 limits assumed): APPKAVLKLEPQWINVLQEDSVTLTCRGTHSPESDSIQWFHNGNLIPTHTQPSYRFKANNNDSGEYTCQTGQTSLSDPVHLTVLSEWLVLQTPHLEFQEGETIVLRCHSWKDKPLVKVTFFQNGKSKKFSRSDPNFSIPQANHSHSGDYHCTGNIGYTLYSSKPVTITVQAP

- Fold increase in binding (vs wt IgG1 control) [1]: 1 fold
- pKd [1]: 5.03
- Fold increase in binding (vs wt IgG1 control) [2]: 1 fold
- pKd [2]: 5.35
- Fold increase in binding (vs wt IgG1 control) [3]: 1 fold
- pKd [3]: 5.09
- Fold increase in binding (vs wt IgG1 control) [4]: 1 fold
- pKd [4]: 4.95
- pKd [5]: 6.04
- Fold increase in binding (vs wt IgG1 control) [6]: 1 fold
- pKd [6]: 8.54
- pKd [7]: 6.40
- pKd [8]: 5.42
- Fold increase in binding (vs wt IgG1 control) [9]: 1 fold
- pKd [9]: 8.82
Substance: wt IgG1 control (antibody)
